In patent US12459974B2, “Bicyclic peptide ligands specific for Nectin-4” (priority 2018, dated 2025):
Like-named read-outs stand apart in the source and are kept apart here. Each block holds one compound with its values, some of them ahead of it. *1 amine or outer side, *2 acyl side, *3 side chain or, on linkers, in order; H or OH if unused. Where a SMILES comes first, the peptide text is derived from it. Bridges are numbered along the chain shown (N, C = ends). Roman numbers before positions name the chains, in order. [ ]: non-standard residue; d: D form. The star is where a group is joined. TATA = O=C(CC[*:1])N1CN(C(=O)CC[*:2])CN(C(=O)CC[*:3])C1; Dolaproine = CO[C@@H]([C@@H]1CCCN1)[C@@H](C)C(=O)O; Dil = CC[C@H](C)[C@H](NC)[C@@H](CC(=O)O)OC; 1Nal = N[C@@H](Cc1cccc2ccccc12)C(=O)O; X3 = O=C(CCCC(=O)[*:2])NCCC(=O)[*:1]; PABC = O=C(OCc1ccc(N[*:1])cc1)[*:2]; X4 = C[C@@H](N*)[C@@H](O)c1ccccc1; Cya = N[C@@H](CS(=O)(=O)O)C(=O)O; Hyp = O=C(O)[C@@H]1C[C@@H](O)CN1; hArg = N=C(N)NCCCC[C@H](N)C(=O)O; Cit = NC(=O)NCCC[C@H](N)C(=O)O; NMeV = CN[C@H](C(=O)O)C(C)C; βAla = NCCC(=O)O; Sar = CNCC(=O)O

Columns and labels:
NCI-H292 xenograft [1] = experiment: Example 1: in vivo efficacy in NCI-H292 xenograft (NSCLC model) in BALB/c nude mice; design: species or system Mus Musculus; conditions: 5 mg/kg
Description: (§1) The major endpoint was to see if the tumor growth could be delayed or mice could be cured. Tumor volume was measured three times weekly in two dimensions using a caliper, and the volume was expressed in mm^3 using the formula: V=0.5 a×b^2 where a and b are the long and short diameters of the tumor, respectively. The tumor size was then used for calculations of T/C value. The T/C value (in percent) is an indication of antitumor effectiveness; T and C are the mean volumes of the treated and control groups, respectively, on a given day. TGI was calculated for each group using the formula: TGI (%)=[1−(Ti−T0)/(Vi−V0)]×100; Ti is the average tumor volume of a treatment group on a given day, T0 is the average tumor volume of the treatment group on the day of treatment start, Vi is the average tumor volume of the vehicle control group on the same day with Ti, and V0 is the average tumor volume of the vehicle group on the day of treatment start.
(§2) A one-way ANOVA was performed to compare tumor volume among groups, and when a significant F-statistics (a ratio of treatment variance to the error variance) was obtained, comparisons between groups were carried out with Games-Howell test. All data were analyzed using GraphPad Prism 5.0. P<0.05 was considered to be statistically significant.
The NCI-H292 tumor cells will be maintained in medium supplemented with 10% heat inactivated fetal bovine serum at 37° C. in an atmosphere of 5% CO2 in air. The tumor cells will be routinely subcultured twice weekly. The cells growing in an exponential growth phase will be harvested and counted for tumor inoculation.
Each mouse will be inoculated subcutaneously at the right flank with NCI-H292 tumor cells (10×10^6) in 0.2 ml of PBS for tumor development. The animals will be randomized and treatment will be started when the average tumor volume reaches approximately 158-406 mm^3.

human Nectin-4 [2] = target: T1, human Nectin-4 (Homo sapiens, UniProt Q96NY8); experiment: Nectin-4 competition binding assay (fluorescence polarisation); conditions: competition with fluorescent peptide SEQ ID NO: 217; read-out: Ki
T1 sequence (Q96NY8 32-510): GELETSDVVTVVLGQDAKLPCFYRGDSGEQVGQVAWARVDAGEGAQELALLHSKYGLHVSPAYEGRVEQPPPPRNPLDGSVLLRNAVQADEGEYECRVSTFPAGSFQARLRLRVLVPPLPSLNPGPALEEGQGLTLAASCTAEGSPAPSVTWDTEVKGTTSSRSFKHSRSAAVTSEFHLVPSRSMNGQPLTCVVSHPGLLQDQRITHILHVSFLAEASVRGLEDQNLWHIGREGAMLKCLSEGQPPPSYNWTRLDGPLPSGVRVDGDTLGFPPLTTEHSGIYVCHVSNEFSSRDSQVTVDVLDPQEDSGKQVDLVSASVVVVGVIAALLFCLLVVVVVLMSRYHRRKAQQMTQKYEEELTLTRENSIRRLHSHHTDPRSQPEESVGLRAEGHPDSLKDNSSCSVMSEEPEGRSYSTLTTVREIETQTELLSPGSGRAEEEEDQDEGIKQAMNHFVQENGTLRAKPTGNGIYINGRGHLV
Outline: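 Ki derived by cubic-equation fit of mP data, with tracer peptide concentration, its Kd and Nectin-4 level as fixed inputs. Competition set up by adding 2-fold peptide dilutions (≤5% DMSO), then Nectin-4, then fluorescent peptide; polarisation measured as for direct binding.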

HCT116 xenograft = experiment: Example 9.2: in vivo efficacy in HCT116 xenograft in Balb/c nude mice; design: species or system Mus Musculus; conditions: 3 mg/kg biw
NCI-H292 xenograft [3] = experiment: Example 9.5: in vivo efficacy in NCI-H292 xenograft in Balb/c nude mice; design: species or system Mus Musculus; conditions: 5 mg/kg; day 9; average
MDA-MB-468 xenograft [4] = experiment: Example 9.4: in vivo efficacy in MDA-MB-468 xenograft in Balb/c nude mice; conditions: 5 mg/kg
Description: as §1, §2
• Species: Mus Musculus • Strain: Balb/c nude • Age: 6-8 weeks • Sex: female • Body weight: 18-22 g • Number of animals: 41 mice plus spare 3.1.2.
The tumor cells were maintained in Leibovitz's L-15 medium supplemented with 10% heat inactivated fetal bovine serum at 37° C. in an atmosphere of 5% CO2 in air. The tumor cells were routinely subcultured twice weekly. The cells growing in an exponential growth phase were harvested and counted for tumor inoculation.
41 animals were randomized when the average tumor volume reached 196 mm^3.

MDA-MB-468 xenograft [5] = experiment: Example 4: in vivo efficacy in MDA-MB-468 xenograft (breast cancer model) in Balb/c nude mice; design: species or system Mus Musculus; conditions: 5 mg/kg
NCI-H526 xenograft = experiment: Example 9.6: in vivo efficacy in NCI-H526 xenograft in Balb/c nude mice
Description: as §1, §2
• Species: Mus Musculus • Strain: Balb/c nude • Age: 6-8 weeks • Sex: female • Body weight: 18-22 g • Number of animals: 21 mice plus spare 3.1.2.
The NCI-H526 cells were maintained in medium supplemented with 10% heat inactivated fetal bovine serum at 37° C. in an atmosphere of 5% CO2 in air. The tumor cells were routinely subcultured twice weekly. The cells growing in an exponential growth phase were harvested and counted for tumor inoculation.
Each mouse was inoculated subcutaneously at the right flank with NCI-H526 tumor cells (5.0×10^6 in 0.2 ml of PBS for tumor development. 21 animals were randomized when the average tumor volume reached 181 mm^3. The test article administration and the animal numbers in each group were shown in the experimental design table.
Tumor growth inhibition rate for test articles in the NCI-H526 xenograft model was calculated based on tumor volume measurements at day 14 after the start of the treatment.

HT-1376 xenograft = experiment: Example 2: in vivo efficacy in HT-1376 xenograft (bladder cancer model) in CB17-SCID mice; conditions: 3 mg/kg
Description: as §1
A one-way ANOVA was performed to compare tumor volume among groups, and when a significant F-statistics (a ratio of treatment variance to the error variance) was obtained, comparisons between groups were carried out with Games-Howell test. […] P<0.05 was considered to be statistically significant.
• Species: Mus Musculus • Strain: CB17-SCID • Age: 6-8 weeks • Sex: female • Body weight: 18-22 g • Number of animals: 21-41 mice plus spare • Animal supplier: Shanghai LC Laboratory Animal Co., LTD.
The HT-1376 tumor cells were maintained in vitro as a monolayer culture in EMEM medium supplemented with 10% heat inactivated fetal bovine serum at 37° C. in an atmosphere of 5% CO2 in air. The tumor cells were routinely subcultured twice weekly by trypsin-EDTA treatment.
Each mouse was inoculated subcutaneously at the right flank with HT-1376 tumor cells (5×10^6) in 0.2 ml of PBS with matrigel (1:1) for tumor development. Animals were randomized when the average tumor volume reached 153-164 mm^3.
Tumor growth inhibition rate for Test articles in the HT-1376 xenograft model was calculated based on tumor volume measurements at day 21 after the start of treatment.

human Nectin-4 [6] = target: T2, human Nectin-4 (Homo sapiens, UniProt Q96NY8); experiment: Nectin-4 Biacore SPR binding assay
T2 sequence (Q96NY8 32-349): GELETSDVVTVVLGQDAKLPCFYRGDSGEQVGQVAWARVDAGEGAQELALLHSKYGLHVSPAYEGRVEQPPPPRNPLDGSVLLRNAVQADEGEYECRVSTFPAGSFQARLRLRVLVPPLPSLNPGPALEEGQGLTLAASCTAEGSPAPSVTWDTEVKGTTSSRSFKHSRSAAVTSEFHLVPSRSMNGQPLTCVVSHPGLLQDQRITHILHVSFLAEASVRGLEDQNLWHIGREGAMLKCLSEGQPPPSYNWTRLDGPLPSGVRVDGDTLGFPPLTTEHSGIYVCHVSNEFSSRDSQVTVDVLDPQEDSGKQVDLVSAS
Description: Biacore experiments were performed to determine ka (M^−1 s^−1), kd (s^−1), KD (nM) values of monomeric peptides binding to human Necin-4 protein (obtained from Charles River).
Human Nectin-4 (residues Gly32-Ser349; NCBI RefSeq: NP_112178.2) with a gp67 signal sequence and C-terminal FLAG tag was cloned into pFastbac-1 and baculovirus made using standard Bac-to-Bac™ protocols (Life Technologies). Sf21 cells at 1×10^6 ml^−1 in Excell-420 medium (Sigma) at 27° C. were infected at an MOI of 2 with a P1 virus stock and the supernatant harvested at 72 hours. […] The protein was eluted with 100 μg/ml FLAG peptide. The eluted protein was concentrated to 2 ml and loaded onto an S-200 Superdex column (GE Healthcare) in PBS at 1 ml/min. 2 ml fractions were collected and the fractions containing Nectin-4 protein were concentrated to 16 mg/ml.
The protein was extensively desalted to remove uncoupled biotin using spin columns into PBS.
For analysis of peptide binding, a Biacore 3000 instrument was used utilising a CM5 chip (GE Healthcare). Streptavidin was immobilized on the chip using standard amine-coupling chemistry at 25° C. with HBS-N (10 mM HEPES, 0.15 M NaCl, pH 7.4) as the running buffer. Briefly, the carboxymethyl dextran surface was activated with a 7 minute injection of a 1:1 ratio of 0.4 M 1-ethyl-3-(3-dimethylaminopropyl) carbodiimide hydrochloride (EDC)/0.1 M N-hydroxy succinimide (NHS) at a flow rate of 10 μl/min. For capture of streptavidin, the protein was diluted to 0.2 mg/ml in 10 mM sodium acetate (pH 4.5) and captured by injecting 120 μl of streptavidin onto the activated chip surface. Residual activated groups were blocked with a 7 minute injection of 1 M ethanolamine (pH 8.5) and biotinylated Nectin-4 captured to a level of 1,200-1,800 RU. Buffer was changed to PBS/0.05% Tween 20 and a dilution series of the peptides was prepared in this buffer with a final DMSO concentration of 0.5%. The top peptide concentration was 100 nM with 6 further 2-fold dilutions. The SPR analysis was run at 25° C. at a flow rate of 50 μl/min with 60 seconds association and dissociation between 400 and 1,200 seconds depending upon the individual peptide. Data were corrected for DMSO excluded volume effects. All data were double-referenced for blank injections and reference surface using standard processing procedures and data processing and kinetic fitting were performed using Scrubber software, version 2.0c (BioLogic Software). Data were fitted using simple 1:1 binding model allowing for mass transport effects where appropriate.

MDA-MB-468 cell line = experiment: Example 11: HCS assay, Nectin-4 BDC binding study; type: cell-based
Description: HCS assay was used in Nectin-4 BDC binding study. Cells were incubated with test agent and then washed. Detection was by a fluorescent antibody to MMAE.

SMILES: CC[C@H](C)[C@@H]([C@@H](CC(=O)N1CCC[C@H]1[C@H](OC)[C@@H](C)C(=O)N[C@H](C)[C@@H](O)c1ccccc1)OC)N(C)C(=O)[C@@H](NC(=O)[C@H](C(C)C)N(C)C(=O)OCc1ccc(NC(=O)[C@H](CCCNC(N)=O)NC(=O)[C@@H](NC(=O)CCCC(=O)NCCC(=O)N(C)CC(=O)N(C)CC(=O)N(C)CC(=O)N(C)CC(=O)N(C)CC(=O)N[C@H]2CSCCC(=O)N3CN4CN(C3)C(=O)CCSC[C@H](NC(=O)[C@@H](CC(=O)O)NC(=O)[C@H](Cc3ccccc3)NC(=O)[C@@H]3CCCN3C2=O)C(=O)N[C@@H](CCSC)C(=O)N[C@@H](CCCCNC(=N)N)C(=O)N[C@@H](CC(N)=O)C(=O)N[C@@H](Cc2c[nH]c3ccccc23)C(=O)N[C@@H](CO)C(=O)N[C@@H](Cc2c[nH]c3ccccc23)C(=O)N2CCC[C@H]2C(=O)N[C@@H]([C@@H](C)CC)C(=O)N[C@@H](Cc2c[nH]c3ccccc23)C(=O)N[C@H](C(N)=O)CSCCC4=O)C(C)C)cc1)C(C)C [BCY7683, MMAE-PABC-Cit-Val-Glutaryl-BCY7556] (I: [Sar][Sar][Sar][Sar][Sar]CPF[dD]CM[hArg]NWSWPIWC-NH2 / II: V[Cit][PABC][NMeV]V[Dil][Dolaproine]-X4; linker I:6-I:10-I:20 via TATA; linker I:N-II:N via X3)
bodyweight (in words) (NCI-H292 xenograft [1]): severe bodyweight loss

SMILES: CSCC[C@@H]1NC(=O)[C@@H]2CSCCC(=O)N3CN(CN(C3)C(=O)CCSC[C@H](NC(C)=O)C(=O)N3CCC[C@H]3C(=O)N[C@@H](Cc3cccc4ccccc34)C(=O)N[C@H](CCCNC(=N)N)C(=O)N2)C(=O)CCSC[C@@H](C(N)=O)NC(=O)[C@H](Cc2c[nH]c3ccccc23)NC(=O)[C@@H]2C[C@@H](O)CN2C(=O)[C@@H]2CCCN2C(=O)[C@H]([C@@H](C)O)NC(=O)[C@H](CCO)NC(=O)[C@H](Cc2c[nH]c3ccccc23)NC(=O)[C@H](CC(=O)O)NC(=O)[C@H](CCCCNC(=N)N)NC1=O [BCY8188, Ac-(SEQ ID NO: 193)]
Ki (human Nectin-4 [2]): 20 nM

Ki (human Nectin-4 [2]): 4.5 nM
SMILES: CSCC[C@@H]1NC(=O)[C@@H]2CSCCC(=O)N3CN(CN(C3)C(=O)CCSC[C@H](NC(C)=O)C(=O)N3CCC[C@H]3C(=O)N[C@@H](Cc3cccc4ccccc34)C(=O)N[C@H](CCCNC(=N)N)C(=O)N2)C(=O)CCSC[C@@H](C(N)=O)NC(=O)[C@H](Cc2c[nH]c3ccccc23)NC(=O)[C@@H]2C[C@@H](O)CN2C(=O)[C@@H]2CCCN2C(=O)[C@H](CO)NC(=O)[C@H](CO)NC(=O)[C@H](Cc2c[nH]c3ccccc23)NC(=O)[C@H](CC(=O)O)NC(=O)[C@H](CCCCNC(=N)N)NC1=O [BCY8191, Ac-(SEQ ID NO: 195)] (Ac-CP[1Nal][dR]CM[hArg]DWSSP[Hyp]WC-NH2; linker 1-5-15 via TATA; C-terminus assumed)

SMILES: CC[C@H](C)[C@@H]([C@@H](CC(=O)N1CCC[C@H]1[C@H](OC)[C@@H](C)C(=O)N[C@H](C)[C@@H](O)c1ccccc1)OC)N(C)C(=O)[C@@H](NC(=O)[C@H](C(C)C)N(C)C(=O)OCc1ccc(NC(=O)[C@H](CCCNC(N)=O)NC(=O)[C@@H](NC(=O)CCCC(=O)NCCC(=O)N(C)CC(=O)N(C)CC(=O)N(C)CC(=O)N(C)CC(=O)N(C)CC(=O)N(C)CC(=O)N(C)CC(=O)N(C)CC(=O)N(C)CC(=O)N(C)CC(=O)N[C@H]2CSCCC(=O)N3CN4CN(C3)C(=O)CCSC[C@H](NC(=O)[C@@H](CCCNC(=N)N)NC(=O)[C@H](Cc3cccc5ccccc35)NC(=O)[C@@H]3CCCN3C2=O)C(=O)N[C@@H](CC(C)C)C(=O)N[C@@H](CCCCNC(=N)N)C(=O)N[C@@H](Cc2c[nH]cn2)C(=O)N[C@@H](Cc2c[nH]c3ccccc23)C(=O)N[C@@H](CO)C(=O)N[C@@H]([C@@H](C)O)C(=O)N2CCC[C@H]2C(=O)N2C[C@H](O)C[C@H]2C(=O)N[C@@H](Cc2c[nH]c3ccccc23)C(=O)N[C@H](C(N)=O)CSCCC4=O)C(C)C)cc1)C(C)C [BCY8253, MMAE-PABC-Cit-Val-Glutaryl-BCY8231] (I: [Sar][Sar][Sar][Sar][Sar][Sar][Sar][Sar][Sar][Sar]CP[1Nal][dR]CL[hArg]HWSTP[Hyp]WC-NH2 / II: V[Cit][PABC][NMeV]V[Dil][Dolaproine]-X4; linker I:11-I:15-I:25 via TATA; linker I:N-II:N via X3)
bodyweight loss (NCI-H292 xenograft [1]; day 9, average): > 15%
bodyweight loss (HCT116 xenograft): 15%
bodyweight loss (NCI-H292 xenograft [3]): > 15%
animal body weight (in words) (MDA-MB-468 xenograft [4]): severe animal body weight loss
death (MDA-MB-468 xenograft [4]): found dead on day 20
animal body weight (in words) (MDA-MB-468 xenograft [5]): severe animal body weight loss
death (MDA-MB-468 xenograft [5]): found dead on day 20

SMILES: CC[C@H](C)[C@@H]([C@@H](CC(=O)N1CCC[C@H]1[C@H](OC)[C@@H](C)C(=O)N[C@H](C)[C@@H](O)c1ccccc1)OC)N(C)C(=O)[C@@H](NC(=O)[C@H](C(C)C)N(C)C(=O)OCc1ccc(NC(=O)[C@H](CCCNC(N)=O)NC(=O)[C@@H](NC(=O)CCCC(=O)NCCC(=O)N(C)CC(=O)N(C)CC(=O)N(C)CC(=O)N(C)CC(=O)N(C)CC(=O)N(C)CC(=O)N(C)CC(=O)N(C)CC(=O)N(C)CC(=O)N(C)CC(=O)N[C@H]2CSCCC(=O)N3CN4CN(C3)C(=O)CCSC[C@H](NC(=O)[C@@H](CCCNC(=N)N)NC(=O)[C@H](Cc3cccc5ccccc35)NC(=O)[C@@H]3CCCN3C2=O)C(=O)N[C@@H](CCSC)C(=O)N[C@@H](CCCCNC(=N)N)C(=O)N[C@@H](CC(=O)O)C(=O)N[C@@H](Cc2c[nH]c3ccccc23)C(=O)N[C@@H](CO)C(=O)N[C@@H]([C@@H](C)O)C(=O)N2CCC[C@H]2C(=O)N2C[C@H](O)C[C@H]2C(=O)N[C@@H](Cc2c[nH]c3ccccc23)C(=O)N[C@H](C(N)=O)CSCCC4=O)C(C)C)cc1)C(C)C [BCY8255, MMAE-PABC-Cit-Val-Glutaryl-BCY8235] (I: [Sar][Sar][Sar][Sar][Sar][Sar][Sar][Sar][Sar][Sar]CP[1Nal][dR]CM[hArg]DWSTP[Hyp]WC-NH2 / II: V[Cit][PABC][NMeV]V[Dil][Dolaproine]-X4; linker I:11-I:15-I:25 via TATA; linker I:N-II:N via X3)
bodyweight loss (HCT116 xenograft): 15%
animal bodyweight loss (NCI-H526 xenograft; 3 mg/kg biw): over 15%
animal bodyweight loss (NCI-H526 xenograft; 5 mg/kg qw): over 15%
animal body weight (in words) (MDA-MB-468 xenograft [4]): severe animal body weight loss
animal body weight (in words) (MDA-MB-468 xenograft [5]): severe animal body weight loss
death (HT-1376 xenograft): found dead on day 16

Kd (human Nectin-4 [6]): 5.99 nM
SMILES: CSCC[C@@H]1NC(=O)[C@@H]2CSCCC(=O)N3CN(CN(C3)C(=O)CCSC[C@H](NC(=O)CN(C)C(=O)CN(C)C(=O)CN(C)C(=O)CN(C)C(=O)CN(C)C(=O)CN(C)C(=O)CN(C)C(=O)CN(C)C(=O)CN(C)C(=O)CN(C)C(=O)CCNC(C)=O)C(=O)N3CCC[C@H]3C(=O)N[C@@H](Cc3cccc4ccccc34)C(=O)N[C@H](CC(=O)O)C(=O)N2)C(=O)CCSC[C@@H](C(N)=O)NC(=O)[C@H](Cc2c[nH]c3ccccc23)NC(=O)[C@@H]2C[C@@H](O)CN2C(=O)[C@@H]2CCCN2C(=O)[C@H]([C@@H](C)O)NC(=O)[C@H](CO)NC(=O)[C@H](Cc2c[nH]c3ccccc23)NC(=O)[C@H](CC(=O)O)NC(=O)[C@H](CS(=O)(=O)O)NC1=O [BCY8277, Ac-[B-Ala][Sar10]-(SEQ ID NO: 178)] (Ac-[βAla][Sar][Sar][Sar][Sar][Sar][Sar][Sar][Sar][Sar][Sar]CP[1Nal][dD]CM[Cya]DWSTP[Hyp]WC-NH2; linker 12-16-26 via TATA; C-terminus assumed)

SMILES: CC[C@H](C)[C@@H]([C@@H](CC(=O)N1CCC[C@H]1[C@H](OC)[C@@H](C)C(=O)N[C@H](C)[C@@H](O)c1ccccc1)OC)N(C)C(=O)[C@@H](NC(=O)[C@@H](NC)C(C)C)C(C)C [MMAE, Monomethyl auristatin E, reference compound] (H-[NMeV]V[Dil][Dolaproine]-X4)
binding affinity on MDA-MB-468 cell line (in words) (MDA-MB-468 cell line): almost no detectable binding affinity
Max fluorescent intensity (MDA-MB-468 cell line; MDA-MB-468 cell line, fluorescent antibody to MMAE): 2.95
Kd (MDA-MB-468 cell line; MDA-MB-468 cell line, historical data, read-out: Historical Kd): > 10000 nM
Kd (MDA-MB-468 cell line; MDA-MB-468 cell line, read-out: Kd): > 10000 nM
retention on the cells (in words) (MDA-MB-468 cell line; detection by a fluorescent antibody to MMAE): minimal retention
